# Target: mouse B6 class I antigens (H-2^b: D^b or K^b) on RMA-S cells (mouse)
# Assay: RMA-S cells incubated with peptide (25 ug/ml), flow cytometry with FITC anti-D^b or anti-K^b
row,Binder,Binding Affinity to Mouse MHC Class I (% increase of D^b or K^b on RMA-S cells) [%]
1,GCNKRYFKL [WT1 peptide p329-337 (…)],1.2
2,NQMNLGATL [WT1 peptide p239-247 (…)],1
3,CMTWNQMNL [WT1 peptide p235-243 (…)],33.6
4,SCLESQPAI [WT1 peptide human p136-144 (…)],52
5,QMTSQLECM [WT1 peptide p228-236 (…)],1.2

# Next, values leading:
row,Binding Affinity to Mouse MHC Class I (% increase of D^b or K^b on RMA-S cells) [%],Binder
1,0.8,YSSDNLYQM [WT1 peptide p221-229 (…)]
2,5.8,NLYQMTSQL [WT1 peptide p225-233 (…)]
3,2.2,ALLPAVPSL [WT1 peptide human p10-18 (…)]

# Target: mouse B6 class I antigens (H-2^b: D^b or K^b) on RMA-S cells (mouse)
# Assay: binding of 9mer peptide to mouse B6 (H-2^b) class I antigens, RMA-S cell assay
row,Binder,Binding Affinity to Mouse MHC Class I [%]
1,SSGQARMFP [WT1 peptide P121-129 (…)],1
2,PSQASSGQA [WT1 peptide P117-125 (…)],2
3,SQASSGQAR [WT1 peptide P118-126 (…)],2
4,APYLPSCLE [WT1 peptide P131-139 (…)],1
5,NAPYLPSCL [WT1 peptide P130-138 (…)],79
6,QARMFPNAP [WT1 peptide P124-132 (…)],1
7,QASSGQARM [WT1 peptide P119-127 (…)],2

# Continued, values first:
row,Binding Affinity to Mouse MHC Class I [%],Binder
1,1,ASSGQARMF [WT1 peptide P120-128 (…)]
2,2,MFPNAPYLP [WT1 peptide P127-135 (…)]
3,1,ARMFPNAPY [WT1 peptide P125-133 (…)]
4,1,FPNAPYLPS [WT1 peptide P128-136 (…)]
5,1,PNAPYLPSC [WT1 peptide P129-137 (…)]

# Reference: US20090312403A1
